# The DeepSol protein solubility set
# Test: soluble on expression in E. coli; label from the status in PepcDB or PDB records
row,Sequence,soluble on expression in E. coli
1,MGHHHHHHSHSEVAIKIDFDFAPGSFDDQYQGCSKQVMEKLTQGDYFTKDIEAQKNYFRMWQKAHLAWLNQGKVLPQNMTTTHAVAILFYTLNSNVHSDFTRAMASVARTPQQYERSFHFKYLHYYLTSAIQLLRKDSIMENGTLCYEVHYRTKDVHFNAYTGATIRFGQFLSTSLLKEEAQEFGNQTLFTIFTCLGAPVQYFSLKKEVLIPPYELFKVINMSYHPRGNWLQLRSTGNLSTYNCQLLKASSKKCIPDPIAIASLSFLTSVIIFSKSRV,not soluble
2,MAHHHHHHMSPASLAKSSQDKTAPSTEGTTRFGDSSPPVAAAASPAMYGQPWNTPTTLHSLVESVTRESGEAAAARAGTSKSTVPRLAVSRSLPCSTTVVQETVTNTGRVVSTVATGAAAPSSLLTGTDTPTPLWRSTATTAAVRAEHLRELEDFLEQRGGRGTSMEGRHKVIQKALSLLPVVYPPLAKVAEPMQRYIEDVAASLRRAATEKGRSAAASGERAVRAVRSVFRREDTRAHAGEEAGRGGGKGGARCRLSPCVQERDVELMAVKEQLMQRMNTCEKTEDQFRDFRHLIASVFNTNQQLNLRIEQLEEVLARHRIDLPPASEEMMAFQTSLDGQRSFVPQASTVDGDGDDDSSSGG,not soluble
3,MSLKITDVRAHQIRIPYDAGVASFRQGASAITALDMVIVEVTTDAGLTGWGDAFAYVCPRTTRSAVEEMIAPQARGLEVPDAAGIAAVMEQIQRNLHLFGRYGITMFAISGLDIALWDLAAKIKGVPVHRLLGETRRPAIPAYASLLRIGSPDNIAAECKKALALGYGAIKLHETTAPAVYAAREAIGPGVPLMVDMNCPLSGEQAIAFAGTCRDAQPMFLEEPVWPPEDFAALAEVRSKGGLGVAAGENACTEHQFRQMMNAGAVSHAQPSVIKVGGITEFLKVAALADRLGVKIVPHSPYFGPGLLATLHLLAGRDDGFVEMFYLKREACLWGGRADVDATGHVAVPTGLGLGYEPDRGVMERYRVAEGHHHHHH,not soluble
4,AHHHHHHGSAESPFKADIERAQKELSEKMTPGAIVYIPGSSVINKTGSWRVFKPEFNRDKCVRCYLCYIYCPEPAIYLDEEGYPVFDYDYCKGCGICANECPTKAIEMVREVK,not soluble
5,MSLQVQKSFKEQTAYGKLYLVPTPIGNLQDMTFRSIAILKKVDYIAAEDTRNTGLLLKHFDISTRQLSFHEHNAFEKIPDLLKLLKSGNSLAQVSDAGLPSISDPGYDLVRAAIQEDIAVIALPGASAGITALIASGLAPQPHIFYGFLPRKSGQQKSFFEEKKYYPETQIFYESPYRVQETLENILSVYGDRQIVLTRELTKLYEEYQRGNISEILTYIAENPLKGECLLLVSGYDHQEKEQQVSEVELKHLVEALVKEGMKPNQAIKKVAKENDFNRQELYQLYHELQEGHHHHHH,soluble
6,SMGTKLKKSNNDITIFSENEYNEIVEMLRDYSNGDNLEFEVSFKNINYPNFMRITEHYINITPENKIESNNYLDISLIFPDKNVYRVSLFNQEQIGEFITKFSKASSNDISRYIVSLDPSDDIEIVYKNRGSGKLIGIDNWAITIKSTEEIPLVAGKSKISKPKITGSERIMYRYKTRYSFTINKNSRIDITDVKSSPIIWKLMTVPSNYELELELINKIDINTLESELLNVFMIIQD,soluble
7,MSNEMYYVQASDPAILEKGECGGAVTALFKYLLDKGIVDGVLALKKGVDVYDAIPTFVTSSEDLLSTAGSLHCAPTMWGGIIKEYLQDAKIAVPVKPCDMRAIVELAKRAQINLDNVYMIGLNCGGTVPPKTAMEMIKLFYEVDPKDVVKEEIDKGKFIIVMKDGSHKEVKMHDLEDNGYGRRVNCQRCDEKIPRKADIAAGNWGVIGEDAGKYTFMEVCTEKGKQLLKDAEKDGYVKTKAPNPKGLEIRAKVESSMLKMGEDYKNKWLEEKYPTIEEWNRQWNKCIKCYGCRDVCPVCFCRECALTADYVDTGSIPPDPIMFQGVRMSHMAFSCVNCGQCEDVCPMEIPVARIFHKIQEKTRKELGYRPGVDDEAPPALGGSCPTQLEHHHHHH,not soluble
8,GSARQQEIDMKRQQRFFRIPFIRPADQYKDPQNKKKGWWYAHFDGPWIARQMELHPDKPPILLVAGKDDMEMCELNLEETGLTRKRGAEILPRQFEEIWERCGGIQYLQSAIESRQARPTYATAMLQNLLKGSSGGSLVPR,soluble
